Molecular target: N,N-dimethylated casein

B1: 3×HA-6His tag fusion transglutaminase (AO090023000250 of Aspergillus oryzae with a C-terminal 3×HA-6His tag) (protein)
chain: MAEETQVLSIQQRIAALNQAQVGQSPQAAASPLLGAQPTPFASRPAPSRQQTINNPPVNSHDSLGDRNEPTGAQPKPVPRPPPIPVQKPRAPPPLPARKASTESAPALPPRRPSGFSRKESRESLGSDVSHSTSTSAGRATIASTTSNNSDTIRSVRAPAWGAKLPPLPPKRQDTKTVQPPPRPRPSPANSSRSLSQGRPSLPPRRESTNSTSTNGNRSTSRPPPPLPSRINSDKSPGPSADTNGKQSTRKLPPPPPSSAALEKIQSSGLAGINRNTENSGKGTNGSVQEPQPNGVPPPVPRATRPDVDLAKLQATKPRLCKTTHSATAPSTMCLKCRDFSAPDAHAAQYPRESLPSYDLAWLARELTAPFPSPTDKARALFTWFHHNIEYDVHSFFNKCVKPSTPAGTLASGLAVCEGYASLFATLATHAGLEAVVVAGHGKGYGYDAPAPGSPIPPVSATGHAWSAVRIDNGQWKLLDACWGAGVVQGPGLPYKKQFNPAMFTDSNDEFGLRHFPSNRSHFFRDDGRPEITWEEYILGNPNSPLSAEQPTIFGDAQNHSIGERSFRPAAKQISIHDPSPLRFQFNLICEHWTLEHHTRAKPGLFLLMVHGLDGRQDDRLPFTHVRGSGPGGGGDFWYVDVPNAKILGAPGQKLAIAVLTSFGDRKDARGVTAEEYRQQVGRVGMAWAYIAEWQLV
Q: With B1 as the protein, how does the “polymerization of casein (SDS-PAGE, Coomassie blue staining)” value read?
A: in the presence of the purified or unpurified 3×HA-6His tag fusion protein, polymerization of casein was observed
